Laboratory results taken from US20140161804A1 (AbbVie / Abbott, published 2014).
Changes are numbered by the printed parent chain.

B1: h10F7-M10-hMAk195-24.8 DVD-Ig (bispecific antibody, human IgG1, kappa, L234A L235A)
heavy: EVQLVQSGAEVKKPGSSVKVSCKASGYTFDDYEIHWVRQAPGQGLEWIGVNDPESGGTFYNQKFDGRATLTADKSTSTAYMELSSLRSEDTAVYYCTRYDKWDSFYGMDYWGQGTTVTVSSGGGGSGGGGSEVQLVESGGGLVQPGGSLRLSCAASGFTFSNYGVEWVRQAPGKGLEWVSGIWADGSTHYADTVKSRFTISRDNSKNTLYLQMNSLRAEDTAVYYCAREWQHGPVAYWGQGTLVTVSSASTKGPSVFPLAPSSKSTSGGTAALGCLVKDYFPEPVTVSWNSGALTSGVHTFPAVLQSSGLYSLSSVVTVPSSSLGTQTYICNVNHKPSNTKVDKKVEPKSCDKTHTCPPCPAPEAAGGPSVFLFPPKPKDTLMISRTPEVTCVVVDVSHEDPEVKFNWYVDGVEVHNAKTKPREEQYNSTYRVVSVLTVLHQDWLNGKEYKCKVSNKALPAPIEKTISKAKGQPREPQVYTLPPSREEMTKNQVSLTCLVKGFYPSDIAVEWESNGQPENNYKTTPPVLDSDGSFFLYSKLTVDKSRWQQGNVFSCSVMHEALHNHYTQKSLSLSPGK
light: DIQMTQSPSSLSASVGDRVTITCSASSGSISYIDWFQQKPGKAPKRLIYATFELASGVPSRFSGSGSGTDFTLTISSLQPEDFATYYCHQLGSYPDTFGQGTKLEIKRGGSGGGGSGDIQMTQSPSSLSASVGDRVTITCKASQLVSSAVAWYQQKPGKAPKLLIYWASTLHTGVPSRFSGSGSGTDFTLTISSLQPEDFATYYCQQHYRTPFTFGQGTKLEIKRTVAAPSVFIFPPSDEQLKSGTASVVCLLNNFYPREAKVQWKVDNALQSGNSQESVTEQDSKDSTYSLSSTLTLSKADYEKHKVYACEVTHQGLSSPVTKSFNRGEC
B2: AE11-5 (antibody, V domains shown)
VH: EVQLVQSGAEVKKPGSSAKVSCKASGGTFSSYAISWVRQAPGQGLEWMGGIIPILGTANYAQKFLGRVTITADESTSTVYMELSSLRSEDTAVYYCARGLYYDPTRADYWGQGTLVTVSS
VL: DIVMTQSPDFHSVTPKEKVTITCRASQSIGSSLHWYQQKPDQSPKLLIRHASQSISGVPSRFSGSGSGTDFTLTIHSLEAEDAATYYCHQSSSSPPPTFGQGTQVEIK
notes: Fully human anti-TNF antibody isolated by in vitro display; also called AE11-5 VH; AE11-5 VL
B3: hMAK199-1-h10F7-M10.8 DVD-Ig (bispecific antibody, human IgG1, kappa, L234A L235A)
heavy: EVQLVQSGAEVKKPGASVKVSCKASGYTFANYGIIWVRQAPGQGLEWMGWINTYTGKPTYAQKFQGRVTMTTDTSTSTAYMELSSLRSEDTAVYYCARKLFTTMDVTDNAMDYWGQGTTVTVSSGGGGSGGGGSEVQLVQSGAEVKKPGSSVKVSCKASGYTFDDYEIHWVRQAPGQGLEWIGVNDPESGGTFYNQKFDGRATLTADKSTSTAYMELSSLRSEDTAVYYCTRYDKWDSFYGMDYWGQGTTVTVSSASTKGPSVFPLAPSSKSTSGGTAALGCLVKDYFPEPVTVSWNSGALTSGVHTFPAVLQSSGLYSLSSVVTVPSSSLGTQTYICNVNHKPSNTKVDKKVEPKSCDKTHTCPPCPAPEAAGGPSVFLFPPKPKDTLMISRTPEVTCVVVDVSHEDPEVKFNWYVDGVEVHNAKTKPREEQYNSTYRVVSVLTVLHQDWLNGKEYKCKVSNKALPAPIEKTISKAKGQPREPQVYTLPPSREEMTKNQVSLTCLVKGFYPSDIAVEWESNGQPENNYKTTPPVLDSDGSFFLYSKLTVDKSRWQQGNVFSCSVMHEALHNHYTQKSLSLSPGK
light: DIQMTQSPSSLSASVGDRVTITCRASQDISQYLNWYQQKPGKAPKLLIYYTSRLQSGVPSRFSGSGSGTDFTLTISSLQPEDFATYFCQQGNTWPPTFGQGTKLEIKRGGSGGGGSGDIQMTQSPSSLSASVGDRVTITCSASSGSISYIDWFQQKPGKAPKRLIYATFELASGVPSRFSGSGSGTDFTLTISSLQPEDFATYYCHQLGSYPDTFGQGTKLEIKRTVAAPSVFIFPPSDEQLKSGTASVVCLLNNFYPREAKVQWKVDNALQSGNSQESVTEQDSKDSTYSLSSTLTLSKADYEKHKVYACEVTHQGLSSPVTKSFNRGEC
notes: DVD-Ig; IgG1 234,235 mut, kappa; GS10 linkers; also called HMAK199-1-GS10-H10F7-M10 DVD
B4: hMAK199-1-h10F7-M11.8 DVD-Ig wt (bispecific antibody, human IgG1, kappa)
heavy: not shown
light: B3 light with S141R, S146I, E170D, F188Y, H206R, L208V, D213E
notes: DVD-Ig; wild-type IgG1, kappa; GS10 linkers; Uncertain; also called HMAK199-1-h10F7-M11.8 HC DVD wt
B5: hMAK199-1-h10F7-M11.8 QL DVD-Ig (bispecific antibody, human IgG1, kappa, L234A L235A)
heavy: EVQLVQSGAEVKKPGASVKVSCKASGYTFANYGIIWVRQAPGQGLEWMGWINTYTGKPTYAQKFQGRVTMTTDTSTSTAYMELSSLRSEDTAVYYCARKLFTTMDVTDNAMDYWGQGTTVTVSSGGGGSGGGGSEVQLVQSGAEVKKPGSSVKVSCKASGYTFTDYEIHWVRQAPGQGLEWMGVNDPESGGTFYNQKFDGRVTLTADESTSTAYMELSSLRSEDTAVYYCTRYSKWDSFDGMDYWGQGTTVTVSSASTKGPSVFPLAPSSKSTSGGTAALGCLVKDYFPEPVTVSWNSGALTSGVHTFPAVLQSSGLYSLSSVVTVPSSSLGTQTYICNVNHKPSNTKVDKKVEPKSCDKTHTCPPCPAPEAAGGPSVFLFPPKPKDQLMISRTPEVTCVVVDVSHEDPEVKFNWYVDGVEVHNAKTKPREEQYNSTYRVVSVLTVLHQDWLNGKEYKCKVSNKALPAPIEKTISKAKGQPREPQVYTLPPSREEMTKNQVSLTCLVKGFYPSDIAVEWESNGQPENNYKTTPPVLDSDGSFFLYSKLTVDKSRWQQGNVFSCSVLHEALHNHYTQKSLSLSPGK
light: B3 light with S141R, S146I, E170D, F188Y, H206R, L208V, D213E
notes: DVD-Ig; IgG1 (234,235) mut with QL mutations, kappa; GS10 linkers
B6: hMAK199-1-h10F7-M11.8 DVD-Ig (bispecific antibody, human IgG1, kappa, L234A L235A)
heavy: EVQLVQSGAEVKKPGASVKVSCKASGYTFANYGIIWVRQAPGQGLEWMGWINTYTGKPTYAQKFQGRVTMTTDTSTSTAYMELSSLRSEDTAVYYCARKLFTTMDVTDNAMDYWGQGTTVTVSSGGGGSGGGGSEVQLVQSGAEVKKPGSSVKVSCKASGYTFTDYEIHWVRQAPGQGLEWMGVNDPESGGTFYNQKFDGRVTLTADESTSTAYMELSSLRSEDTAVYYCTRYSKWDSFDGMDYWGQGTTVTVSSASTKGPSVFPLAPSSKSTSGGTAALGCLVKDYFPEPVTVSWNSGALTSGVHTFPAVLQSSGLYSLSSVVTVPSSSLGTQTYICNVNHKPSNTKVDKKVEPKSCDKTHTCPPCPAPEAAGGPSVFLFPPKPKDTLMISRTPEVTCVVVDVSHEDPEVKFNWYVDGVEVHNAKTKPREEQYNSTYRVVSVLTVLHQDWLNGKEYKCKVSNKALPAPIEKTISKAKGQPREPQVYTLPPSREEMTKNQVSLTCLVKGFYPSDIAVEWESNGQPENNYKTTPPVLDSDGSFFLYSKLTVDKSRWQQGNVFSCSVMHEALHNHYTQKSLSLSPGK
light: B3 light with S141R, S146I, E170D, F188Y, H206R, L208V, D213E
notes: DVD-Ig; IgG1 234,235 mut, kappa; GS10 linkers; also called HMAK199-1-GS10-H10F7-M11 DVD
B7: hMAK199-1-h10F7-M10.8 QL DVD-Ig (bispecific antibody, human IgG1, kappa, L234A L235A)
heavy: B5 heavy with T164D, M182I, V202A, E208K, S234D, D240Y
light: B3 light
notes: as for B5
B8: hMAK199-1-h10F7-M11.8 YTE DVD-Ig (bispecific antibody, human IgG1, kappa, L234A L235A)
heavy: B5 heavy with Q388T, M390Y, S392T, T394E, L566M
light: B3 light with S141R, S146I, E170D, F188Y, H206R, L208V, D213E
notes: DVD-Ig; IgG1 (234,235) mut with YTE mutations, kappa; GS10 linkers
B9: AE11-1 (antibody, V domains shown)
VH: EVQLVQSGAEVKKPGASVKVSCKASGYTFTSYDVNWVRQATGQGLEWMGWMNPNSGNTGYAQKFQGRVTITADESTSTAYMELSSLRSEDTAVYYCAIFDSDYMDVWGKGTLVTVSS
VL: SYELTQPPSVSLSPGQTARITCSGDALPKQYAYWYQQKPGQAPVLVIYKDTERPSGIPERFSGSSSGTTVTLTISGAQAEDEADYYCQSADSSGTSWVFGGGTKLTVL
notes: Fully human anti-TNF antibody isolated by in vitro display; also called AE11-1 VH; AE11-1 VL

What was measured:
Human TNF [1] = target: T1, Human TNF (human, UniProt P01375 77-233); experiment: cell-based or functional assay
T1 sequence (P01375 77-233 limits assumed): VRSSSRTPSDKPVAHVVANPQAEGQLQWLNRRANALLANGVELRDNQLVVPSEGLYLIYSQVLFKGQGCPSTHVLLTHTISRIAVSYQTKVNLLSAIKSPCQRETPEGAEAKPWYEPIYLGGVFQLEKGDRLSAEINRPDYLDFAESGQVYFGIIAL

Human TNF [2] = target: T1, Human TNF; experiment: in vitro display selection on recombinant human TNF
Human TNF [3] = target: T1, Human TNF; experiment: ELISA, captured DVD-Ig, biotin-human TNF titrated
Protocol: (§1) The following protocol is used to characterize the binding of TNF/IL-17 DVD-Ig proteins to human TNF and IL-17 by enzyme-linked immunosorbent assay (ELISA). An ELISA plate was coated with 50 μl per well of goat anti mouse IgG-Fc at 2 μg/ml, overnight at 4° C. The plate was washed 3 times with PBS/Tween. 50 μl Mab diluted to 1 μg/ml in PBS/0.1% BSA was added to appropriate wells and incubated for 1 hour at room temperature (RT). The plate was washed 3 times with PBS/Tween. 50 μl of serial diluted biotin-human TNF or IL-17 was added to appropriate wells and incubated for 1 hour at RT. The plate was washed 3 times with PBS/Tween. 50 μl of streptavidin-HRP diluted 1:10,000 in PBS/0.1% BSA was added to appropriate wells and incubated for 1 hour at RT. The plate was washed 3 times with PBS/Tween. 50 μl of TMB was added to appropriate wells and the reaction allowed to proceed for 1 minute. The reaction was stopped with 50 μl/well 2N H₂SO₄ and the absorbance read at 450 nm.

Human IL-17A [4] = target: T2, Human IL-17A (human, UniProt Q16552 20-155, limits assumed); experiment: ELISA, captured DVD-Ig, biotin-human IL-17 titrated
T2 construct: Biotinylated in the ELISAs; purified recombinant protein in SPR; also called hIL17A; hIL-17
T2 sequence (Q16552 20-155 limits assumed): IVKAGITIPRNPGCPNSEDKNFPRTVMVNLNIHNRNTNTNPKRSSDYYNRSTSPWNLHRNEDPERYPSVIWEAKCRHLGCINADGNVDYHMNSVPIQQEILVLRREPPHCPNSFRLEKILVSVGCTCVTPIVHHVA
Protocol: as §1

Human IL-17A [5] = target: T2, Human IL-17A; experiment: SPR (Biacore T200), DVD-Ig captured by anti-human IgG Fc, antigen in solution
Protocol: (§2) The binding of antibodies to purified recombinant IL-17 and TNFα proteins were determined by surface plasmon resonance-based measurements with a Biacore® T200 instrument (GE Healthcare) using running HBS-EP (10 mM HEPES [pH 7.4], 150 mM NaCl, 3 mM EDTA, and 0.005% surfactant P20) containing 0.1 mg/ml BSA at 25° C. All chemicals were obtained from Biacore® AB (GE Healthcare) or otherwise from a different source as described in the text. Approximately 5000 RU of goat anti-human IgG (Fcγ) fragment specific polyclonal antibody (Pierce Biotechnology Inc, Rockford, Ill.) diluted in 10 mM sodium acetate (pH 4.5) was directly immobilized across a CM5 research grade biosensor chip using a standard amine coupling kit according to manufacturer's instructions and procedures at 25 ug/ml. Unreacted moieties on the biosensor surface were blocked with ethanolamine. Modified carboxymethyl dextran surface in flowcell 2, 3 and 4 were used as a reaction surface. Modified carboxymethyl dextran with goat IgG in flow cell 1 was used as the reference surface. For kinetic analysis, rate equations derived from the 1:1 Langmuir binding model were fitted simultaneously to association and dissociation phases of all six injections (using global fit analysis with local float for Rmax) with the use of Biacore T200 Evaluation software v.1.0. Purified antibodies were diluted in HEPES-buffered saline for capture across goat anti-human IgG specific reaction surfaces. Antibodies to be captured as ligand (1-5 μg/ml) were injected over reaction matrices at a flow rate of 50 μl/minute. Association phase was monitored for 5 minutes, while dissociation phase was monitored for 10-60 minutes to accommodate for slower off-rates. The association and dissociation rate constants, ka (unit M-1 s-1) and kd (unit s-1) were determined under a continuous flow rate of 50 μl/minute. Rate constants were derived by making kinetic binding measurements at six different antigen concentrations ranging from 0.78 nM to 100 nM, depending on the species of IL-17 or TNFα tested. The association ka, dissociation rate kd and equilibrium dissociation constant KD were calculated with the use of the same Biacore T200 Evaluation software v.1.0.

Cynomolgus monkey IL-17A = target: T3, Cynomolgus monkey IL-17A (cynomolgus monkey, UniProt A0A2K5TTB0 24-155); experiment: as above
T3 construct: also called Cyno IL-17AA; Cyno IL17AA
T3 sequence (A0A2K5TTB0 entry or part of it): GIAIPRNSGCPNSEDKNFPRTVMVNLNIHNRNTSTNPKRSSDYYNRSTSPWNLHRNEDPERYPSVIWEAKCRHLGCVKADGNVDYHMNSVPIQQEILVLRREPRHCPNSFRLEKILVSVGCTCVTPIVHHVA
Protocol: as §2

Human TNF [6] = target: T1, Human TNF; experiment: as above
Protocol: as §2

Rhesus TNFa = target: T4, Rhesus TNFa (rhesus, UniProt P48094 77-233); experiment: as above
T4 construct: also called Rhesus TNF-alpha
T4 sequence (P48094 77-233 limits assumed): as the sequence (P01375 77-233 limits assumed) above, with R44T, T72N, R138L counted along it
Protocol: as §2

| Binder | Potency IC50 (nM), L929 bioassay, human TNF (Human TNF [1]) [nM] | EC50 (Human TNF [3]) [nM] | EC50 (Human IL-17A [4]) [nM] | Kd (Human IL-17A [5]) [nM] | koff (Human IL-17A [5]) [s⁻¹] | kon (Human IL-17A [5]) [M⁻¹ s⁻¹] | other results |
| --- | --- | --- | --- | --- | --- | --- | --- |
| B1 | 2.56 | – | – | – | – | – | – |
| B2 | – | – | – | – | – | – | binding result (Human TNF [2]): binds |
| B3 | 0.037 | 0.22 | 0.081 | – | – | – | – |
| B4 | 0.033 | 0.095 | 0.088 | 0.0257 | 7.9e-06 | 307000 | Kd (Cynomolgus monkey IL-17A): 0.00444 nM; koff (Cynomolgus monkey IL-17A): 1.18e-06 s⁻¹; kon (Cynomolgus monkey IL-17A): 267000 M⁻¹ s⁻¹; Kd (Human TNF [6]): 0.00561 nM; koff (Human TNF [6]): 2.4e-05 s⁻¹; kon (Human TNF [6]): 4.28e+06 M⁻¹ s⁻¹; Kd (Rhesus TNFa): 0.0137 nM; koff (Rhesus TNFa): 3.03e-05 s⁻¹; kon (Rhesus TNFa): 2.2e+06 M⁻¹ s⁻¹ |
| B5 | 0.027 | 0.119 | 0.142 | < 0.00452 | < 1e-06 | 221000 | – |
| B6 | 0.031 | 0.22 | 0.078 | 0.0337 | 1.11e-05 | 329000 | Kd (Cynomolgus monkey IL-17A): 0.00722 nM; koff (Cynomolgus monkey IL-17A): 2.15e-06 s⁻¹; kon (Cynomolgus monkey IL-17A): 299000 M⁻¹ s⁻¹; Kd (Human TNF [6]): 0.0055 nM; koff (Human TNF [6]): 2.37e-05 s⁻¹; kon (Human TNF [6]): 4.31e+06 M⁻¹ s⁻¹; Kd (Rhesus TNFa): 0.0108 nM; koff (Rhesus TNFa): 2.39e-05 s⁻¹; kon (Rhesus TNFa): 2.21e+06 M⁻¹ s⁻¹ |
| B7 | – | 0.183 | 0.063 | – | – | – | – |
| B8 | – | 0.1 | 0.05 | – | – | – | – |
| B9 | – | – | – | – | – | – | binding result (Human TNF [2]): binds |
